Protein stability index data for 72 sequences are collected here from the supplement of paper PMC10567573.

± gives the standard deviation.

A short description of this data set: protein stability index of a GFP-peptide fusion (GPS, HEK-293T) (PSI 1-6); higher = more stable.
The mark [1] stands for this setting: treatment: DMSO, c terminus: a fixed tail appended.
The mark [2] stands for this setting: treatment: MLN4924 1 uM, 8 h, c terminus: a fixed tail appended.
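Further: 24-mer peptide tiles fused after GFP, lentivirally expressed, FACS-sorted into six equal bins by GFP/DsRed ratio, decoded by Illumina sequencing, PSI is the read-weighted mean bin number.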

For TLVEAIKEQDGREVDWEYFYGLLF [DFFB], the protein stability index is, setting by setting: under setting [1], 2.46 ± 0.28; under setting [2], 2.69 ± 0.63.
In the same order, the values of TNLTVTMDQLQGLGSDYEQPLEVK [CDC25A] are 4.61 ± 0.16 and 4.69 ± 0.24.
Sequence TNSTPLRAACFDGHLEIVKYLVEH [FEM1C] yielded a protein stability index under setting [1] of 2.28 ± 0.49 and a protein stability index under setting [2] of 2.39 ± 0.55.
In the case of TPEEVIWEALNMMGLYDGMEHLIY [MAGEA10], the protein stability index under setting [1] came to 2.49 ± 0.37 and the protein stability index under setting [2] turned out to be 2.03 ± 0.055.
On to TPEVAAAPKPDAAPSIDLFSTDAF [SNAP91], for which the protein stability index came out at 4.75 ± 0.23 under setting [1] and 4.75 ± 0.12 under setting [2].
Regarding TPPETKPDPPVNFLRQKVLSLPLP [PCMTD2], the protein stability index was determined as 3.74 ± 0.24 under setting [1] and 3.85 ± 0.22 under setting [2].
Regarding TPRSPEGTTEAATQDGKEQPELPC [PXN], the protein stability index is, setting by setting: under setting [1], 5.38 ± 0.22; under setting [2], 5.36 ± 0.23.
Consider TQQTGTVRFDGYVIDGATALWCAA [FEM1B], for which the protein stability index runs as follows: under setting [1], 2.3 ± 0.11; under setting [2], 2.22 ± 0.34.
Regarding TRGIAKIISAHIHPVCSLCWSRDG [RBBP5], the protein stability index reads like this: under setting [1], 2.45 ± 0.44; under setting [2], 2.04 ± 0.19.
For TRIFTEDRFAQDSEMKKCSDYESI [PPEF2], in that order: 4.42 ± 0.098 and 4.25 ± 0.18.
As for TRQKKNLPDSPLRFDGLPAVLGFP [TRIM15], the protein stability index was found to be 2.85 ± 0.3 under setting [1] and 2.92 ± 0.3 under setting [2].
For TSGGLLSEAPNEKLFFVDTGSKEK [NOP53], in that order: 4.92 ± 0.25 and 4.84 ± 0.68.
As for TSIQWKNHDQNNHNTDRSSHKDSM [EDNRA], the protein stability index was 5.05 ± 0.12 under setting [1] and 5.14 ± 0.2 under setting [2].
Regarding TSVFQKKLCTAHMCSTLEHNCAHF [MATN2], the protein stability index is, setting by setting: under setting [1], 2.47 ± 0.22; under setting [2], 2.8 ± 0.34.
On to TTLEIHNTEERQKRQVTHFQFLSW [PTPN9], for which the protein stability index is 2.28 ± 0.41 under setting [1] and 2.78 ± 0.59 under setting [2].
Consider TVAGIVGSSYGILQLFSSTLVGCW [MFSD9], for which the protein stability index by setting is: under setting [1], 2.96 ± 0.83; under setting [2], 2.89 ± 0.32.
Turning to TVPADGYILELDDGNGGQFREVYV [TRIM9], the protein stability index under setting [1] came out at 2.15 ± 0.24 and the protein stability index under setting [2] was 2.2 ± 0.6.
With TVQDYQDLIDRGWRRSGKYVYKPV [ATE1], the protein stability index reads like this: under setting [1], 2.89 ± 0.21; under setting [2], 3.03 ± 0.51.
In the same order, the values of TVRGLHCMCTVGERLYVIGGNHFR [KLHL13] are 2.12 ± 0.26 and 2.18 ± 0.2.
On to VAETECRYALQLQQIQGLISSIEA [KRT13], for which the protein stability index reads like this: under setting [1], 2.72 ± 0.15; under setting [2], 2.63 ± 0.2.
In the case of VARTHLTEDTPKVNADIEKVNQNQ [NSDHL], the protein stability index was determined as 5.08 ± 0.22 under setting [1] and 5.06 ± 0.11 under setting [2].
Turning to VDFNTLKSIGSEPHEDHVFLVANF [MATN2], the protein stability index runs as follows: under setting [1], 2.06 ± 0.3; under setting [2], 2.18 ± 0.18.
For VEKIRKLPNTLLRKDKDVARLQDF [ANKRD40], the protein stability index runs as follows: under setting [1], 2.93 ± 0.22; under setting [2], 3.02 ± 0.28.
For the sequence VEPGTPPLDILAQPLEASNPALEG [DNAAF3], the protein stability index runs as follows: under setting [1], 5.35 ± 0.14; under setting [2], 5.36 ± 0.21.
In the case of VFIFYYVVEEILELHIHRLRYLSS [PKD2L1], the protein stability index came out at 2.8 ± 0.091 under setting [1] and 3.07 ± 0.51 under setting [2].
On to VFLGNKRSLSERTVDKCFGRKKYD [SPATS1], for which the protein stability index was 2.82 ± 0.24 under setting [1] and 3.21 ± 0.16 under setting [2].
As for VGVRMRDVKCYQGTDIVRGCDPLV [ADAMTSL2], the protein stability index was 3.01 ± 0.29 under setting [1] and 3.09 ± 0.45 under setting [2].
Turning to VHLLLKKVLFALCALNALTTTVCL [FAM189A2], the protein stability index was determined as 3.48 ± 0.24 under setting [1] and 3.02 ± 0.36 under setting [2].
For the sequence VIDDAKQYVYIAVMDYLPISSTST [PLD5], the protein stability index runs as follows: under setting [1], 2.54 ± 0.95; under setting [2], 2.76 ± 0.73.
For VIKENDPSGFLQISDALIRRVHLT [TRIM9], in that order: 2.07 ± 0.26 and 2.39 ± 0.34.
In the case of VIRRLDETVVNRIAAGEVIQRPAN [MLH1], the protein stability index under setting [2] turned out to be 3.92 ± 0.28.
For VKAATTEPTEVEEVVPALEPTETL [BCL2L13], the protein stability index is, setting by setting: under setting [1], 5.65 ± 0.16; under setting [2], 5.67 ± 0.14.
Regarding VKELRPQLMTSQFISVFSNLLESK [ZER1], the protein stability index is 2.38 ± 0.24 under setting [1] and 2.61 ± 0.44 under setting [2].
VKETGYFFIYGQVLYTDKTYAMGH [TNFSF13B]: the protein stability index turned out to be 2.86 ± 1.5 under setting [1] and 2.41 ± 0.86 under setting [2].
Take VKVIMDALDERAKVLHEDKQTREQ [TRIM29]: the protein stability index by setting is: under setting [1], 3.84 ± 0.098; under setting [2], 3.84 ± 0.39.
For VLKDELQLYGDAPGEVVPSGESGL [TMEM40], the protein stability index was 5.14 ± 0.24 under setting [1] and 5.26 ± 0.23 under setting [2].
On to VLQERVRIFAHKIYLSTSSSKFYD [RHOBTB2], for which the protein stability index reads like this: under setting [1], 2.6 ± 0.54; under setting [2], 2.33 ± 0.46.
The sequence VLQMWHIVDKCTELLREGRASATT [ZBTB22] displayed a protein stability index under setting [1] of 2.19 ± 0.29 and a protein stability index under setting [2] of 2.25 ± 0.41.
In the case of VNHRIYYKGHIPEKLETFVSLHR [FEM1C], the protein stability index is, setting by setting: (treatment: DMSO, c terminus: native) 2.24 ± 0.17; (treatment: MLN4924 1 uM, 8 h, c terminus: native) 2.305 ± 0.015.
Consider VNPFQLQQFRADPSTASLLLCPGG [TIAF1], for which the protein stability index runs as follows: under setting [1], 2.93 ± 0.11; under setting [2], 2.78 ± 0.14.
Consider VNSNKVVMSGVKCSGTELSLAHCR [LOXL2], for which the protein stability index was found to be 3.38 ± 1 under setting [1] and 2.95 ± 0.43 under setting [2].
With VPRPGIPPMTQAQAVSAPGILNRP [ZNF207], the protein stability index is, setting by setting: under setting [1], 4.55 ± 0.063; under setting [2], 4.45 ± 0.086.
In the same order, the values of VPWSQCLQNFLLHGTKNVTNSSSL [WSB1] are 2.19 ± 0.21 and 2.19 ± 0.24.
Consider VRKKRFRKTQKKVPDVKEMEKSSF [TAF7L], for which the protein stability index by setting is: under setting [1], 4.1 ± 0.11; under setting [2], 4.37 ± 0.19.
For VSCLGLGTWVTFGGQITDEMAEQL [KCNAB2], the protein stability index runs as follows: under setting [1], 2.32 ± 0.27; under setting [2], 2.51 ± 0.3.
In the same order, the values of VSGGSAGGYGGGVSCGFGGGAGSG [KRT13] are 3.47 ± 0.38 and 3.55 ± 0.19.
The sequence VSHPIIYRGAVYADNMEFEQCIKL [FEM1B] yielded a protein stability index under setting [1] of 2.5 ± 0.48 and a protein stability index under setting [2] of 2.5 ± 0.25.
As for VSQHWATWALYNLVSVYPDKYCPL [ZER1], the protein stability index came to 3.07 ± 0.34 under setting [1] and 2.74 ± 0.41 under setting [2].
As for VTAKTAPDVLRTKPAFIGKTNLDG [PTPRD], the protein stability index runs as follows: under setting [1], 3.73 ± 0.4; under setting [2], 4.06 ± 0.35.
VTGEKEEPSRSASEADSEAGELRK [PPEF2] registered a protein stability index under setting [1] of 5.35 ± 0.61 and a protein stability index under setting [2] of 5.5 ± 0.29.
VTTEQLGAKMTERGSVARPTQGPE [PXN]: the protein stability index runs as follows: under setting [1], 5.35 ± 0.17; under setting [2], 5.14 ± 0.38.
For VVIDKHPVRFFVHKRPHVDFFLEV [CTDNEP1], in that order: 2.22 ± 1.1 and 3.06 ± 0.87.
For VVKRREGPAGHSKGELAPELGEEP [POLD4], in that order: 5.46 ± 0.087 and 5.14 ± 0.36.
With VVLPGAVSLRYSGATAASETLSGH [ADAMTS4], the protein stability index amounted to 2.95 ± 0.46 under setting [1] and 2.96 ± 0.41 under setting [2].
On to VVNKYQINGLQAWLLTHLLWFANA [DHCR7], for which the protein stability index runs as follows: under setting [1], 2.9 ± 0.28; under setting [2], 2.75 ± 0.34.
Consider VVQEPPGRASRFLQSISWDPEDFE [TLE6], for which the protein stability index reads like this: under setting [1], 4.24 ± 0.33; under setting [2], 4.65 ± 0.45.
As to VVVSVAGAFRKGKSFILDFMLRYL [ATL3], the protein stability index by setting is: under setting [1], 2.55 ± 0.3; under setting [2], 2.68 ± 0.34.
As to VYDQAVSIFYDLPQGSGFCLGQLN [SMAD6], the protein stability index by setting is: under setting [1], 2.03 ± 0.24; under setting [2], 2.16 ± 0.32.
As for VYLANQAKNQSDEAKEAKGSGYEK [RTP4], the protein stability index is, setting by setting: under setting [1], 4.96 ± 0.52; under setting [2], 5.08 ± 0.21.
Take WASTSPGTDLPLSEIPRGVRVALD [TRIM15]: the protein stability index is, setting by setting: under setting [1], 3.91 ± 0.29; under setting [2], 3.87 ± 0.26.
As to WCLVQICEKYLPGYYSEKLEAIQL [TBC1D10A], the protein stability index under setting [1] is 2.74 ± 0.48 and the protein stability index under setting [2] came out at 3.57 ± 0.41.
On to WDERGRAAAYSPSEALLYALVHDH [ANKRD9], for which the protein stability index by setting is: under setting [1], 3.02 ± 0.37; under setting [2], 2.95 ± 0.27.
In the same order, the values of WEQPWASEVFGPERMPPSGAARSF [PXN] are 3.73 ± 0.33 and 3.45 ± 0.11.
In the same order, the values of WEWNELIPQGICPVGRSWHSLTPV [KLHDC2] are 2.16 ± 0.27 and 2.27 ± 0.21.
On to WFPLHLSRILKKTVYNEMDKNRCE [EDNRA], for which the protein stability index stood at 2.6 ± 0.84 under setting [1] and 1.98 ± 0.4 under setting [2].
For WGPLQDSLEHTLRVAIAHYQDDPD [TSPAN10], in that order: 3.54 ± 0.28 and 3.69 ± 0.22.
Turning to WKDLTLSTRPEEGCSLHEEDTQRH [TCAP], the protein stability index was determined as 5.08 ± 0.25 under setting [1] and 5.13 ± 0.28 under setting [2].
In the same order, the values of WKIAPAMAAGNTVIAKPSELTSVT [ALDH8A1] are 3.12 ± 0.41 and 3.17 ± 0.53.
As for WLEDEPGRGAQGENERVRGLETGD [ZSWIM9], the protein stability index worked out at 5.49 ± 0.32 under setting [1] and 5.48 ± 0.18 under setting [2].
As to WLNKEKGIFKIEDSAQVARLWGIR [SPDEF], the protein stability index was 2.63 ± 0.32 under setting [1] and 2.35 ± 0.17 under setting [2].
In the same order, the values of WSGEVKDKNVQVVELPIVDSLHPR [FUT8] are 4.17 ± 0.17 and 4.29 ± 0.15.
Consider WTLKLDGNLQLDCLAQGWKQYQQR [RTP4], for which the protein stability index reads like this: under setting [1], 2.2 ± 0.26; under setting [2], 2.55 ± 0.26.
